Measurements as given in PMC7845647.

Biological target: FadR (Escherichia coli (EHEC) 86-24, UniProt B5YXL1 1-239)
Test: EMSA; apo FadR, no ligand
Conditions: protein: recombinant, tags: N-terminal His (pET28, NdeI/BamHI), chain copies: 2, blunt

FadR, sequence (B5YXL1 whole entry): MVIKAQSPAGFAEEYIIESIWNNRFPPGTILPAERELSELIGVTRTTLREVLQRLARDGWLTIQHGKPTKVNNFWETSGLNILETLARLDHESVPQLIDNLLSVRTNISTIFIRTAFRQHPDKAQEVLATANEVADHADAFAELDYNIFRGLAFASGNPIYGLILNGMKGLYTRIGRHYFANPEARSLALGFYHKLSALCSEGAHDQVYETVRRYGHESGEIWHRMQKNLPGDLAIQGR

Row | Binder | binding result (label: 32P (EMSA, T4 PNK), none stated in thermal shift) | binding result (label: 32P (T4 PNK))
1 | fadL promoter FadR site (FadR_fadL site) (dsDNA) DNA 1: ATCTGGTACGACCAGAT DNA 2: ATCTGGTCGTACCAGAT | binds | 
2 | ler (LEE1) promoter distal FadR site (FadR_ler site) (dsDNA) DNA 1: TAATCGTTTGTCCGACTTTAACAGA DNA 2: TCTGTTAAAGTCGGACAAACGATTA |  | binds
